Reference: patent publication US20250295809A1

Target: HER2 on cancer cell lines (BT-474, SK-BR-3, MDA-MB-361-luc) (human) (UniProt P04626)
Test: cell-based or functional assay

ZW-25 bispecific antibody
Emax, BT-474 cell proliferation (CellTiter-Glo 2.0, 4 days): 41.5% | IC50, BT-474 cell proliferation (CellTiter-Glo 2.0, 4 days): 0.125 µg/mL | IC50, SK-BR-3 cell proliferation (CellTiter-Glo 2.0, 4 days): 0.431 µg/mL
